Experimental data from patent US20190270817A1 (Amgen, published 2019).
Where a chain is given by its changes, count along the chain named. Numbers in names are those of the source. One block for each binder: values may come before it.

Biological target: T1, cynomolgus monkey IL-21R, recombinant soluble (FLAG-His or Fc, not stated which) (cynomolgus monkey, UniProt G7Q0S8 41-253)
T1 construct: also called IL-21R Cy
Test: ForteBio Octet

Kd: > 300 nM
B1: A-3-009 (20C1.009) x IL-21 (R5Q, R76E) homodimer fusion (other, not shown: a dimerising Fc or GST)
heavy: EVQLLESGGGLVQPGGSLRLSCAASGFTFSSYDMSWVRQAPGKGLEWVSLISGGGSQTYYAESVKGRFTISRDNSKNTLYLQMNSLRAEDTAVYFCASPSGHYFYAMDVWGQGTTVTVSSQGQDQHMIRMRQLIDIVDQLKNYVNDLVPEFLPAPEDVETNCEWSAFSCFQKAQLKSANTGNNERIINVSIKKLKEKPPSTNAGRRQKHRLTCPSCDSYEKKPPKEFLERFKSLLQKMIHQHLSSRTHGSEDS
light: DIQMTQSPSSVSASVGDRVTITCRASQGISNWLAWYQQKPGKAPKLLIFAASSLQSGVPSRFSGSGSGTDFTLTISSLQPEDFATYYCQQAESFPHTFGGGTKVEIKRTVAAPSVFIFPPSDEQLKSGTASVVCLLNNFYPREAKVQWKVDNALQSGNSQESVTEQDSKDSTYSLSSTLTLSKADYEKHKVYACEVTHQGLSSPVTKSFNRGEC

Kd: > 300 nM
B2: A-4-006 (20C1.006) x IL-21 (R5A, R76E) homodimer fusion (other, not shown: a dimerising Fc or GST)
heavy: B1 heavy with Q57N, Q125A
light: B1 light

Kd: > 300 nM
B3: A-3-009 (20C1.009) x IL-21 (R9E, R76A) homodimer fusion (other, not shown: a dimerising Fc or GST)
heavy: B1 heavy with Q125R, R129E, E196A
light: B1 light

Kd: > 300 nM
B4: A-3-009 (20C1.009) x IL-21 (R5E, R76A) homodimer fusion (other, not shown: a dimerising Fc or GST)
heavy: B1 heavy with Q125E, E196A
light: B1 light

Kd: > 300 nM
B5: A-2-006 (22D4.006) x IL-21 (R5A, R76E) homodimer fusion (other, not shown: a dimerising Fc or GST)
heavy: EVQLVESGGSVVRPGGSLRLSCAASGFTVDDYSMSWVRQVPGKGLEWVSGINWNGGRTRYADAVKGRFTISRDSAKNSLYLQMNSLRAEDTALYYCAREFNNFESNWFDPWGQGTLVTVSSQGQDAHMIRMRQLIDIVDQLKNYVNDLVPEFLPAPEDVETNCEWSAFSCFQKAQLKSANTGNNERIINVSIKKLKEKPPSTNAGRRQKHRLTCPSCDSYEKKPPKEFLERFKSLLQKMIHQHLSSRTHGSEDS
light: SYELTQPPSVSVSPGQTARITCSGDALPKKYAYWYQQKPGQAPVLVISEDAKRPSGIPERFSGSSSGTMATLTISGAQVEDEADYYCYSTDASGNHRVFGGGTKLTVLGQPKAAPSVTLFPPSSEELQANKATLVCLISDFYPGAVTVAWKADSSPVKAGVETTTPSKQSNNKYAASSYLSLTPEQWKSHRSYSCQVTHEGSTVEKTVAPTECS

Kd: > 300 nM
B6: A-2-006 (22D4.006) x IL-21 (R9E, R76A) homodimer fusion (other, not shown: a dimerising Fc or GST)
heavy: B5 heavy with A126R, R130E, E197A
light: B5 light

Kd: > 300 nM
B7: A-2-006 (22D4.006) x IL-21 (R5Q, R76E) homodimer fusion (other, not shown: a dimerising Fc or GST)
heavy: B5 heavy with A126Q
light: B5 light

Kd: > 300 nM
B8: A-2-006 (22D4.006) x IL-21 (R5E, R76A) homodimer fusion (other, not shown: a dimerising Fc or GST)
heavy: B5 heavy with A126E, E197A
light: B5 light

Kd: > 300 nM
B9: A-1-003 (20A2.003) x IL-21 (R5A, R76E) homodimer fusion (other, not shown: a dimerising Fc or GST)
heavy: not shown
light: SYELTQPPSVSVSPGQTASITCSGDKLGDKYASWYQQKPGQSPVLVIYQDRKRPSGIPERFSGSNSGNTATLTISGTQAMDEADYYCQAFESSTEVFGGGTKLTVLGQPKAAPSVTLFPPSSEELQANKATLVCLISDFYPGAVTVAWKADSSPVKAGVETTTPSKQSNNKYAASSYLSLTPEQWKSHRSYSCQVTHEGSTVEKTVAPTECS

Kd: > 300 nM
B10: A-1-003 (20A2.003) x IL-21 (R5E, R76A) homodimer fusion (other, not shown: a dimerising Fc or GST)
heavy: not shown
light: B9 light

Kd: > 300 nM
B11: A-1-003 (20A2.003) x IL-21 (R9E, R76A) homodimer fusion (other, not shown: a dimerising Fc or GST)
heavy: not shown
light: B9 light

Kd: > 300 nM
B12: A-1-003 (20A2.003) x IL-21 (R5Q, R76E) homodimer fusion (other, not shown: a dimerising Fc or GST)
heavy: not shown
light: B9 light
